Each block holds one molecule with its values, some of them ahead of it.
Columns and labels:
[1] = biological target: human TRiC (TCP-1 ring complex), his-tagged, CCT1 tagged with GFP (human) (UniProt P17987); test: cryo-EM structure; TRiC (2 mg/ml) sequentially incubated with PFD and PhLP2A in 1:2:~1, each 20 min at RT, with 1 mM AMP-PNP; 3D-focused classification
[2] = biological target: human TRiC (TCP-1 ring complex), his-tagged, CCT1 tagged with GFP (human) (UniProt P17987); test: native gel or EMSA; competition: unlabeled PhLP2A (0.01-10 μM) added to GFP-TRiC (0.25 μM) pre-incubated with AF-647 labeled PFD (1 μM); Native PAGE 4-16%, in-gel fluorescence
[3] = biological target: human TRiC (TCP-1 ring complex), his-tagged, CCT1 tagged with GFP (human) (UniProt P17987); test: cryo-EM structure; closed TRiC: TRiC (0.8 mg/ml) with PhLP2A 1:4 for 30 min, then 1 mM ATP, 1 mM Al3(NO3)3, 6 mM NaF, 10 mM MgCl2, 50 mM KCl, 1 h at RT
[4] = biological target: human TRiC (TCP-1 ring complex), his-tagged, CCT1 tagged with GFP (human) (UniProt P17987); test: native gel or EMSA; native PAGE mobility shift; 0.25 μM open TRiC, PhLP2A 0.01-10 μM, ATPase buffer (30 mM Tris pH 7.4, 120 mM KCl, 5 mM MgCl2, 1 mM DTT), about 30 min at room temperature; apparent Kd; three repetitions
human TRiC subunit CCT3 = biological target: T1, human TRiC subunit CCT3 (human, UniProt P49368 1-545); test: cryo-EM structure; open TRiC (2 mg/ml) with each truncated PhLP2A mutant (TXD, NTD-TXD, TXD-CTD) in 1:2 molar ratio, 20 min at RT; conditions: both partners purified
T1 construct: TRiC subunit CCT3, human; Subunit of m2, seen only within the TRiC complex; source: High Five insect cells, purified as a subunit of TRiC
T1 sequence: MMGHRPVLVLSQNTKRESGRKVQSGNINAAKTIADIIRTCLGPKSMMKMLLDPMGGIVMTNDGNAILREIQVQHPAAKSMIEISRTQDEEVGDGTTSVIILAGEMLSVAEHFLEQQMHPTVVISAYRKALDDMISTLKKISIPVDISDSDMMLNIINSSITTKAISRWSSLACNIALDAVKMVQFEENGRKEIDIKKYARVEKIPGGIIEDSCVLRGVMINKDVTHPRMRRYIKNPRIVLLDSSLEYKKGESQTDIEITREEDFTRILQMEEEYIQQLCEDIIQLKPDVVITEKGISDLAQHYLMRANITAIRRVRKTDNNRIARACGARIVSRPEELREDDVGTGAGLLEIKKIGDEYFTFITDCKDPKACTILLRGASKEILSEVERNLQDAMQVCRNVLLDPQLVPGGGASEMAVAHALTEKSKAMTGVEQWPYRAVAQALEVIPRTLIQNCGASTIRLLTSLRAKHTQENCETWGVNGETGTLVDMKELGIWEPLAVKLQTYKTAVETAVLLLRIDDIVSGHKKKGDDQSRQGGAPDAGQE

human TRiC subunit CCT4 = biological target: T2, human TRiC subunit CCT4 (human, UniProt P50991 1-539); test: as above; conditions: both partners purified
T2 construct: TRiC subunit CCT4, human; Subunit of m2, seen only within the TRiC complex; source: High Five insect cells, purified as a subunit of TRiC
T2 sequence: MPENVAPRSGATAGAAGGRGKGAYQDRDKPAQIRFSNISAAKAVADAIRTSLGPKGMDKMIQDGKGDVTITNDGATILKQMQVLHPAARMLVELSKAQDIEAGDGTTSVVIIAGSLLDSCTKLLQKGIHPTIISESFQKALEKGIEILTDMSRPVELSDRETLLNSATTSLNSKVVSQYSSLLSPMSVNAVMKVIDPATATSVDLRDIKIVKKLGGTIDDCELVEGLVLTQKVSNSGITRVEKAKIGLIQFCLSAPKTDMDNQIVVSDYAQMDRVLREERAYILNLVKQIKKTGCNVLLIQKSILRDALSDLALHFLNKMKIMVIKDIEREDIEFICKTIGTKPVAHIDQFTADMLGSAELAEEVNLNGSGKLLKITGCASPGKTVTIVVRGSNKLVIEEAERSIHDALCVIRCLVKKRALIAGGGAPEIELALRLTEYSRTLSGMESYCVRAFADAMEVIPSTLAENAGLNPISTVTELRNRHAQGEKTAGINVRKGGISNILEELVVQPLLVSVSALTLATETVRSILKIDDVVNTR

[5] = biological target: human TRiC (TCP-1 ring complex), his-tagged, CCT1 tagged with GFP (human) (UniProt P17987); test: as above
[6] = biological target: human TRiC (TCP-1 ring complex), his-tagged, CCT1 tagged with GFP (human) (UniProt P17987); test: cryo-EM structure; closed TRiC: TRiC (0.8 mg/ml) with each truncated PhLP2A mutant (TXD, NTD-TXD, TXD-CTD) 1:2 for 20 min, then 1 mM ATP, 6 mM NaF, 10 mM MgCl2, 50 mM KCl, 1 h at RT

percent of TRiC particles with PFD bound (3D classification) [1]: 25%
Molecule: human Prefoldin (from UniProt O15212 1-129) (complex)

percent of TRiC-bound PFD displaced [2]: < 70% | percent of TRiC particles with PhLP2A bound (3D classification) [1]: 22.9% | percent of closed TRiC particles with PhLP2A in both chambers [3]: 9.5% | percent of closed TRiC particles with PhLP2A in one chamber [3]: 14% | Kd [4]: 170 nM
B1: human PhLP2A (phosducin-like protein 2A), full length (natural protein)
chain: MQDPNADTEWNDILRKKGILPPKESLKELEEEAEEEQRILQQSVVKTYEDMTLEELEDHEDEFNEEDERAIEMYRRRRLAEWKATKLKNKFGEVLEISGKDYVQEVTKAGEGLWVILHLYKQGIPLCALINQHLSGLARKFPDVKFIKAISTTCIPNYPDRNLPTIFVYLEGDIKAQFIGPLVFGGMNLTRDELEWKLSESGAIMTDLEENPKKPIEDVLLSSVRRSVLMKRDSDSEGD
modifications: AF-568 (Alexa568) label, site not stated, only in the native PAGE mobility shift and competition assays

binding result (human TRiC subunit CCT3): binds | binding result (human TRiC subunit CCT4): binds | percent of TRiC particles with NTD-TXD density in the chamber [5]: 19.8% | percent of closed TRiC particles with NTD-TXD density in the chamber [6]: 8.25%
B2: PhLP2A NTD-TXD (aa 1–211), CTD truncation (domain or fragment, human, UniProt Q9H2J4 1-211, looked up)
chain: MQDPNADTEWNDILRKKGILPPKESLKELEEEAEEEQRILQQSVVKTYEDMTLEELEDHEDEFNEEDERAIEMYRRRRLAEWKATKLKNKFGEVLEISGKDYVQEVTKAGEGLWVILHLYKQGIPLCALINQHLSGLARKFPDVKFIKAISTTCIPNYPDRNLPTIFVYLEGDIKAQFIGPLVFGGMNLTRDELEWKLSESGAIMTDLEEN
notes: PhLP2A, human, NTD and TXD, aa 1-211; also called N + TXT fragment; source: E. coli BL21 Rosetta2 pLysS, purified (nickel resin, SDX200); not shown: His6 (encoded by the 3' primer), C-terminal, kept

binding result (human TRiC subunit CCT3): binds
B3: PhLP2A TXD-CTD (aa 85–239), NTD truncation (domain or fragment, human, UniProt Q9H2J4 85-239, looked up)
chain: TKLKNKFGEVLEISGKDYVQEVTKAGEGLWVILHLYKQGIPLCALINQHLSGLARKFPDVKFIKAISTTCIPNYPDRNLPTIFVYLEGDIKAQFIGPLVFGGMNLTRDELEWKLSESGAIMTDLEENPKKPIEDVLLSSVRRSVLMKRDSDSEGD
notes: PhLP2A, human, TXD and CTD, aa 85-239; the 5' primer translates to M-KLKNKFG; also called TXT-C term; source: E. coli BL21 Rosetta2 pLysS, purified (nickel resin, SDX200); not shown: His6 (encoded by the 3' primer), C-terminal, kept

— PMC10837153, “A structural vista of phosducin-like PhLP2A-chaperonin TRiC cooperation during the ATP-driven folding cycle” (Nature Communications, 2024)
